The results in this text go back to paper doi:10.1101/2023.05.03.539133 (bioRxiv, 2023).

As usually defined, the stoichiometry N is the number of molecules, sites or subunits per partner or assembly.

The data set “SEC” deals with the molecule itself. Nature of the data set: SEC. On the technique in general: In gel filtration, larger molecules generally elute earlier.
The data set “AUC” concerns the molecule itself. Put plainly: AUC.

B1: inner membrane cytochrome c ImcH from Geobacter sulfurreducens (recombinant, C-terminal 6x His-tag) (natural protein, UniProt Q747K6 1-507, looked up)
chain: MTLRKTAGYLWNPISLIGFLLAVVATGLIIAFIAMEMITGIDHPYIGLLVYFAFPGMLILGLILVPIGAWRVRNQRRTEVPEEVPPYPRVDFNDPHKRRLFIFFVLASVIFVLIVSVASILGFEFTESTTFCGELCHVVMEPEHKAWQGSPHARVKCVECHVGPGAEWYVKAKLSGLRQVWAVLTHSYHFPIATPIENLRPARDTCEQCHWPEKFYSGRQRVFYHYAPNKENTPREINMLIKIGGTPKSPHAMGIHWHIGTEVTYIARDRKRLDIPYVAVKQKDGSIVEYMDTEKPLTREEIAKAEKRRMDCIDCHNRPTHIYRSPAREMDEHIVSGQIDAGLPYIKKVAVEILEQPYKSKEEAHAAIEAKLPEYYAKNFPEVAKVKAAAINQAVAHVKDIYSRNFFPRMKVTWSTYPNHIGHFYTPGCFRCHDGKHKTSTGKIISKDCNMCHEMIGQKGENIPEGKVVKEFVHPADIGDALYNVNCSDCHMAAAEDSAGGEGPGKH
modifications: seven c-type hemes (CXXCH heme binding motifs)
Consider B1, for which the entries for the “stoichiometry N” value in the data set “SEC” and in “AUC” were 2 and 4, respectively.
